Experimental data: US20230133118A1, “COMPOSITIONS AND METHODS FOR TREATING CANCER” (Adagene AG, priority 2020, published 2023)
Several values for one entry are separate records, joined by “and”; a condition that tells them apart may be missing. Equal entries are not always repeated. Where two headings read alike, the source gives them in different places.

Conditions: for Any DLTs: first 2 cycles
Experimental: The phase 1a dose escalation study in US (ClinicalTrials.gov Identifier: NCT03707093) included accelerated titration (0.03, 0.1 and 0.3 mg/kg) and conventional dose escalation (1, 3, and 10 mg/kg). The phase 1a dose escalation study in China (ClinicalTrials.gov Identifier: NCT03802955) included accelerated titration (0.1 mg/kg) and conventional dose escalation (0.5, 1.5, 3, 5, and 10 mg/kg). […] Patients with advanced or metastatic solid tumors and/or non-Hodgkin lymphoma who were refractory or relapsed and exhausted all available therapies were enrolled and received treatment until disease progression, intolerable toxicity, withdrawal with consent, or for a maximum of 24 months.
Dose expansion studies were conducted for dose levels that were proven tolerable in Phase 1a and with evidence of clinical or biological activity. The dose levels studied in Phase 1 b were 3 mg/kg and 5 mg/kg.

For “ADG106: fully human agonistic anti-CD137 monoclonal IgG4 antibody; heavy chain SEQ ID NO: 10, light chain SEQ ID NO: 11”, the “>=G3 adverse events” value (0.03 mg/kg N=1) was 1 (100) n (%), the “Any Drug Related TEAEs” value (0.03 mg/kg N=1) was 1 (100) n (%) and the “Any SAE” value (0.03 mg/kg N=1) was 0 n (%). The “Any TEAEs Leading to Study Drug Discontinuation” value (0.03 mg/kg N=1) was 0 n (%), the “Any TEAEs leading to Study Drug Dose Reduction or Interruption” value (0.03 mg/kg N=1) was 1 (100) n (%) and the “Any TEAEs with Outcome of Death” value (0.03 mg/kg N=1) was 0 n (%). For the same substance, the “Drug Related SAE” value (0.03 mg/kg N=1) was 0 n (%), the “SAE leading to Drug discontinuation” value (0.03 mg/kg N=1) was 0 n (%) and the “Any DLTs” value (0.03 mg/kg N=1) was 0 n (%). For the same substance, the “>=G3 adverse events” value (0.1 mg/kg N=2) was 0 n (%), the “Any Drug Related TEAEs” value (0.1 mg/kg N=2) was 2 (100) n (%) and the “Any SAE” value (0.1 mg/kg N=2) was 0 n (%). For the same substance, the “Any TEAEs Leading to Study Drug Discontinuation” value (0.1 mg/kg N=2) was 0 n (%), the “Any TEAEs leading to Study Drug Dose Reduction or Interruption” value (0.1 mg/kg N=2) was 0 n (%) and the “Any TEAEs with Outcome of Death” value (0.1 mg/kg N=2) was 0 n (%). For the same substance, the “Drug Related SAE” value (0.1 mg/kg N=2) was 0 n (%), the “SAE leading to Drug discontinuation” value (0.1 mg/kg N=2) was 0 n (%) and the “Any DLTs” value (0.1 mg/kg N=2) was 0 n (%). For the same substance, the “>=G3 adverse events” value (0.3 mg/kg N=1) was 1 (100) n (%), the “Any Drug Related TEAEs” value (0.3 mg/kg N=1) was 1 (100) n (%) and the “Any SAE” value (0.3 mg/kg N=1) was 0 n (%). For the same substance, the “Any TEAEs Leading to Study Drug Discontinuation” value (0.3 mg/kg N=1) was 0 n (%), the “Any TEAEs leading to Study Drug Dose Reduction or Interruption” value (0.3 mg/kg N=1) was 0 n (%) and the “Any TEAEs with Outcome of Death” value (0.3 mg/kg N=1) was 0 n (%). For the same substance, the “Drug Related SAE” value (0.3 mg/kg N=1) was 0 n (%), the “SAE leading to Drug discontinuation” value (0.3 mg/kg N=1) was 0 n (%) and the “Any DLTs” value (0.3 mg/kg N=1) was 0 n (%). For the same substance, the “>=G3 adverse events” value (0.5 mg/kg N=3) was 0 n (%), the “Any Drug Related TEAEs” value (0.5 mg/kg N=3) was 2 (67) n (%) and the “Any SAE” value (0.5 mg/kg N=3) was 0 n (%). For the same substance, the “Any TEAEs Leading to Study Drug Discontinuation” value (0.5 mg/kg N=3) was 0 n (%), the “Any TEAEs leading to Study Drug Dose Reduction or Interruption” value (0.5 mg/kg N=3) was 0 n (%) and the “Any TEAEs with Outcome of Death” value (0.5 mg/kg N=3) was 0 n (%). The “Drug Related SAE” value (0.5 mg/kg N=3) was 0 n (%), the “SAE leading to Drug discontinuation” value (0.5 mg/kg N=3) was 0 n (%) and the “Any DLTs” value (0.5 mg/kg N=3) was 0 n (%). The “>=G3 adverse events” value (1 mg/kg N=4) was 3 (75) n (%), the “Any Drug Related TEAEs” value (1 mg/kg N=4) was 4 (100) n (%) and the “Any SAE” value (1 mg/kg N=4) was 1 (25) n (%). The “Any TEAEs Leading to Study Drug Discontinuation” value (1 mg/kg N=4) was 1 (25) n (%), the “Any TEAEs leading to Study Drug Dose Reduction or Interruption” value (1 mg/kg N=4) was 0 n (%) and the “Any TEAEs with Outcome of Death” value (1 mg/kg N=4) was 1 (25) n (%). The “Drug Related SAE” value (1 mg/kg N=4) was 0 n (%), the “SAE leading to Drug discontinuation” value (1 mg/kg N=4) was 0 n (%) and the “Any DLTs” value (1 mg/kg N=4) was 0 n (%). For the same substance, the “>=G3 adverse events” value (1.5 mg/kg N=5) was 0 n (%), the “Any Drug Related TEAEs” value (1.5 mg/kg N=5) was 2 (40) n (%) and the “Any SAE” value (1.5 mg/kg N=5) was 1 (20) n (%). For the same substance, the “Any TEAEs Leading to Study Drug Discontinuation” value (1.5 mg/kg N=5) was 0 n (%), the “Any TEAEs leading to Study Drug Dose Reduction or Interruption” value (1.5 mg/kg N=5) was 0 n (%) and the “Any TEAEs with Outcome of Death” value (1.5 mg/kg N=5) was 0 n (%). The “Drug Related SAE” value (1.5 mg/kg N=5) was 0 n (%), the “SAE leading to Drug discontinuation” value (1.5 mg/kg N=5) was 0 n (%) and the “Any DLTs” value (1.5 mg/kg N=5) was 0 n (%). The “>=G3 adverse events” value (3 mg/kg N=12) was 4 n (%), the “Any Drug Related TEAEs” value (3 mg/kg N=12) was 6 n (%) and the “Any SAE” value (3 mg/kg N=12) was 3 n (%). The “Any TEAEs Leading to Study Drug Discontinuation” value (3 mg/kg N=12) was 1 n (%), the “Any TEAEs leading to Study Drug Dose Reduction or Interruption” value (3 mg/kg N=12) was 0 n (%) and the “Any TEAEs with Outcome of Death” value (3 mg/kg N=12) was 1 n (%). For the same substance, the “Drug Related SAE” value (3 mg/kg N=12) was 0 n (%), the “SAE leading to Drug discontinuation” value (3 mg/kg N=12) was 0 n (%) and the “Any DLTs” value (3 mg/kg N=12) was 0 n (%). For the same substance, the “>=G3 adverse events” value (5 mg/kg N=7) was 2 (39) n (%), the “Any Drug Related TEAEs” value (5 mg/kg N=7) was 4 (57) n (%) and the “Any SAE” value (5 mg/kg N=7) was 3 (43) n (%). For the same substance, the “Any TEAEs Leading to Study Drug Discontinuation” value (5 mg/kg N=7) was 1 (14) n (%), the “Any TEAEs leading to Study Drug Dose Reduction or Interruption” value (5 mg/kg N=7) was 0 n (%) and the “Any TEAEs with Outcome of Death” value (5 mg/kg N=7) was 0 n (%). The “Drug Related SAE” value (5 mg/kg N=7) was 2 (29) n (%), the “SAE leading to Drug discontinuation” value (5 mg/kg N=7) was 1 (14) n (%) and the “Any DLTs” value (5 mg/kg N=7) was 1 n (%) and 1 (14) n (%). For the same substance, the “>=G3 adverse events” value (10 mg/kg N=5) was 4 (80) n (%), the “Any Drug Related TEAEs” value (10 mg/kg N=5) was 4 (80) n (%) and the “Any SAE” value (10 mg/kg N=5) was 2 (40) n (%). For the same substance, the “Any TEAEs Leading to Study Drug Discontinuation” value (10 mg/kg N=5) was 2 (40) n (%), the “Any TEAEs leading to Study Drug Dose Reduction or Interruption” value (10 mg/kg N=5) was 0 n (%) and the “Any TEAEs with Outcome of Death” value (10 mg/kg N=5) was 0 n (%). For the same substance, the “Drug Related SAE” value (10 mg/kg N=5) was 2 (40) n (%), the “SAE leading to Drug discontinuation” value (10 mg/kg N=5) was 2 (40) n (%) and the “SAEs related to the study treatment” value (China update) was 7. For the same substance, the DLT observed (China update Nov. 30, 2020, 18 dose escalation patients, Grade 4 neutrophil count decreased at 10 mg/kg) was 1, the “TEAE C-reactive protein increase” value (China update, 57 patients) was 35% and the TEAE anemia (China update, 57 patients) was 46%. The “TEAE aspartate aminotransferase increase” value (China update, 57 patients) was 32%, the TEAE asthenia (China update, 57 patients) was 30% and the “TEAE blood present in urine” value (China update, 57 patients) was 21%. It also gave a TEAE constipation (China update, 57 patients) of 25%, a TEAE cough (China update, 57 patients) of 23% and a TEAE hypoalbuminaemia (China update, 57 patients) of 30%. For the same substance, the TEAE hypochloraemia (China update, 57 patients) was 23%, the TEAE hyponatraemia (China update, 57 patients) was 30% and the “TEAE platelet count increase” value (China update, 57 patients) was 21%. It also gave a TEAE proteinuria (China update, 57 patients) of 39%, a TEAE pruritus (China update, 57 patients) of 21% and a TEAE rash (China update, 57 patients) of 25%. The “TEAE white blood cell count decrease” value (China update, 57 patients) was 26%.
